Tests used:
[1] = target: human recombinant TNFα (human) (UniProt P01375); assay: SPR, Biacore T200, standard kinetics, antigen immobilized on CM5 chip
[2] = target: human recombinant TNFα (human) (UniProt P01375); assay: ELISA on human recombinant TNFα, anti-His tag and HRP anti-mouse IgG

Sequence of human recombinant TNFα (human) (P01375 77-233 limits assumed): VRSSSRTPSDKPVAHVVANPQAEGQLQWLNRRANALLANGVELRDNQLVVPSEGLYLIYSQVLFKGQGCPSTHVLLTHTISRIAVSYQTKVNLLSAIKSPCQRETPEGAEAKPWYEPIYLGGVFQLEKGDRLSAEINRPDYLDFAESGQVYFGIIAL

| Kd [1] [nM] | RUmax [1] [RU] | EC50 (read off the curve) [2] [µg/mL] | Substance |
| --- | --- | --- | --- |
| 4.3 | 12 | 0.09 | scFv Ab3 (Adalimumab) of synthesis |
| 9.3 | – | – | scFv Ab3 RREF |
